Data reported in article PMC5669352.

Target: native mapacalcine (Cliona vastifica) (UniProt P86916)
Assay: MALDI-MS

Work on “native mapacalcine (from UniProt P86916 1-89) (natural protein)” yielded a stoichiometry N of 2.
